Test results: US20100292083A1 (Ablynx, published 2010)
Substitutions are numbered along the chain they refer to.

T1: human IL6R (human, UniProt P08887 20-358, limits assumed)
T1 construct: Antigen of the Biacore experiments
T1 sequence (looked up): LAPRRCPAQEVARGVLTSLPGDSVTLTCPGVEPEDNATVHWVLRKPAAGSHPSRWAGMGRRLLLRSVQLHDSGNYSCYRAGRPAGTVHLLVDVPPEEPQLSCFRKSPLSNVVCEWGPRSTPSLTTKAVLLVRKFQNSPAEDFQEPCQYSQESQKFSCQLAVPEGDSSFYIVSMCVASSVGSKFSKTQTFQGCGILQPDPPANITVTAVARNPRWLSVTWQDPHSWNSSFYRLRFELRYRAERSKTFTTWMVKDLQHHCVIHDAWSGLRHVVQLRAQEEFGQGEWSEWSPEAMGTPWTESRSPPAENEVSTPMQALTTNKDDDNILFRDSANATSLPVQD

B1: IL6R65PMP10A11 (VHH)
VHH: EVQLVESGGGLVQPGGSLRLSCAASGSIFKVNAMGWYRQAPGKGRELVAGIISGGSTNYADSVKGRFTISRDNAKNTLYLQMNSLRPEDTAVYYCAFIASNSEYDLGRRFWGQGTLVTVSS
notes: CDR3 library clone
B2: IL6R65PMP12C8 (VHH)
VHH: EVQLVESGGGLVQPGGSLRLSCAASGTVFKINAMAWYRQAPGKGRELVAGLVSAGTANYADSVKGRFTISRDNAKNTLYLQMNSLRPEDTAVYYCAFVTTNSDYDLGRDYWGQGTLVTVSS
B3: IL6R65PMP11C7 (VHH)
VHH: B2 VHH with V28I, I31V, A33I, G50A, L51I, V52I, S53T, A54S, A57T, N58T
B4: IL6R65PMP11G10 (VHH)
VHH: B2 VHH with T27S, V28T, K30R, A33V, L51I, V52I, S53T, A54N, A57T, N58T
B5: IL6R65PMP18B1 (VHH)
VHH: B1 VHH with A99T, S100A, N101D, S102T, E103D, R108K, F110Y
notes: CDR3 library clone
B6: IL6R65PMP13D2 (VHH)
VHH: EVQLVESGGGLVQPGGSLRLSCAASGTTFKVNVMAWYRQAPGKGRELVAAIINDGSTTYADSVKGRFTISRDNAKNTLYLQMNSLRPEDTAVYYCAFVTTNSDYDLGRDYWGQGTLVTVSS
B7: IL6R65PMP11F3 (VHH)
VHH: B6 VHH with T28I, K30R, V31I, N53S, D54G
B8: IL6R65PMP13F3 (VHH)
VHH: B6 VHH with V31I, N53T, D54G, S56T
B9: IL6R65PMP18G11 (VHH)
VHH: B6 VHH with T27S, T28I, V31I, D54G, S56T, T58S
B10: IL6R65PMP13G5 (VHH)
VHH: B6 VHH with T28I, V31I, V33I, D54S, T58S
B11: IL6R65PMP11G7 (VHH)
VHH: B6 VHH with T28I, V31L, N53T, D54G, S56T
B12: IL6R65PMP19H2 (VHH)
VHH: B1 VHH with A99T, S100A, N101D, S102T, E103D, R108K, F110Y
notes: CDR3 library clone
B13: IL6R65PMP11F1 (VHH)
VHH: B6 VHH with S17T, T27S, V31I, A50G, I51V, N53T, D54N
B14: IL6R65PMP11D3 (VHH)
VHH: B6 VHH with T27S, T28I, V31L, A50G, I51V, N53T, D54G, S56N, T58S
B15: IL6R65PMP11D11 (VHH)
VHH: B6 VHH with T27S, V31I, V33I, A50G, I51V, N53T, D54G, S56N, T58N
B16: IL6R65PMP13D3 (VHH)
VHH: B6 VHH with S25N, A50G, I51V, N53T, D54G, S56T, T58N
B17: IL6R65PMP11C4 (VHH)
VHH: B6 VHH with T28I, V31I, A50G, N53T, D54N
B18: IL6R65PMP13B3 (VHH)
VHH: B6 VHH with R19H, T28I, V31I, N53T
B19: IL6R65PMP18G12 (VHH)
VHH: B6 VHH with T27S, T28I, V31I, D54S, S56T, T58S
B20: IL6R65PMP11E9 (VHH)
VHH: B6 VHH with V31I, N53T, D54G, S56T
B21: IL6R65PMP11E4 (VHH)
VHH: B6 VHH with S21T, T28I, N53T, D54G, T58S
B22: IL6R65PMP13F5 (VHH)
VHH: B6 VHH with K30R, V31I, A50G, N53T, D54N, T58S
B23: IL6R65PMP12E1 (VHH)
VHH: B2 VHH with S25N, T27S, F29Y, I31V, L51I, S53T, A54G, A57S
B24: IL6R65PMP11D4 (VHH)
VHH: B6 VHH with V31I, V33I, A50G, I51V, D54S, S56T, T58N
B25: IL6R65PMP11A12 (VHH)
VHH: B6 VHH with T28I, K30R, A50G, N53T, D54N, T58S
B26: IL6R65PMP13H4 (VHH)
VHH: B6 VHH with T27S, T28A, A50G, I51V, N53T, T58N
B27: IL6R65PMP19H7 (VHH)
VHH: B1 VHH with A99T, S100A, N101D, S102T, R108K
notes: CDR3 library clone
B28: IL6R65PMP11H2 (VHH)
VHH: B6 VHH with T27S, T28I, V31I, D54G, S56T, T58S
B29: IL6R65PMP13B2 (VHH)
VHH: B6 VHH with V33I, N53T, D54N
B30: IL6R65PMP18G7 (VHH)
VHH: B6 VHH with A50G, N53T, D54G
B31: IL6R65PMP19A4 (VHH)
VHH: B1 VHH with A99T, S100T, N101D, S102T, E103N, R108K, F110S
notes: CDR3 library clone
B32: IL6R65PMP11E2 (VHH)
VHH: B6 VHH with V33I, N53T, D54G, T58S
B33: IL6R65PMP11E5 (VHH)
VHH: B6 VHH with T27S, K30R, V31I, V33I, A50G, I51V, N53T, D54S, S56N
B34: IL6R65PMP13A2 (VHH)
VHH: B6 VHH with T28I, K30R, N53T, S56T
B35: IL6R65PMP11B4 (VHH)
VHH: B6 VHH with T27S, T28I, V31I, D54G, S56T, T58S
B36: IL6R65PMP13A11 (VHH)
VHH: B2 VHH with I31V, L51V, V52I, T56S
B37: IL6R65PMP18E11 (VHH)
VHH: B6 VHH with K30R, V31I, A50G, N53T, D54N, T58S
B38: IL6R65PMP13F10 (VHH)
VHH: B2 VHH with T27S, A35G, V52I, T56S, A57T
B39: IL6R65PMP11D6 (VHH)
VHH: B6 VHH with V31I, N53S, D54G, T58P
B40: IL6R65PMP11G11 (VHH)
VHH: B6 VHH with V31I, N53T, D54S, S56T, T58S
B41: IL6R65PMP11F10 (VHH)
VHH: B6 VHH with V31L, V33I, I51V, D54G, S56T
B42: IL6R65PMP16H6 (VHH)
VHH: B2 VHH with T27S, K30R, L51F, S53T, A54G, T56S, A57S
B43: IL6R65PMP11D12 (VHH)
VHH: B6 VHH with T28I, V31I, V33I, D54S, T58S
B44: IL6R65PMP18G8 (VHH)
VHH: B6 VHH with V31I, A50G, N53T, D54G, S56T
B45: IL6R65PMP11F12 (VHH)
VHH: B6 VHH with K30R, N53S, D54G
B46: IL6R65PMP11E11 (VHH)
VHH: B6 VHH with V31I, E46K, D54N, S56N
B47: IL6R65PMP13A4 (VHH)
VHH: B6 VHH with K30R, V31L, N53T, D54S, S56T
B48: IL6R65PMP11H10 (VHH)
VHH: B6 VHH with S21T, I51V, D54G, S56T, T58S
B49: IL6R65PMP12C7 (VHH)
VHH: B2 VHH with T27S, F29Y, K30R, A35G, V52I, T56S, A57T
B50: IL6R65PMP11H4 (VHH)
VHH: B6 VHH with T27S, K30R, V31L, N53T, D54N, S56T

The binders below were run against T1, human IL6R (assay: SPR (Biacore), periplasmic extract).
Description: Selection outputs were analyzed by picking individual colonies and growing them overnight in 1 ml 2×YT (Yeast Tryptone) medium+100 ug/ml Carbenicillin at 37 C. Nanobody containing periplasmic extracts were prepared, diluted 1/10 in PBS and subsequently tested for antigen binding in ELISA. Clones with the highest ELISA signals were sequenced and analyzed on Biacore. […] The off-rate of the best clone from the CDR3 library was 7×10e-4 s-1.

In order of falling koff:
1. B29  0.0014 s⁻¹
2. B41  0.0013 s⁻¹
3. B6  0.0011 s⁻¹
4. B27  0.0011 s⁻¹
5. B38  0.0011 s⁻¹
6. B1  0.001 s⁻¹
7. B24  0.001 s⁻¹
8. B49  0.00091 s⁻¹
9. B31  0.00089 s⁻¹
10. B3  0.00085 s⁻¹
11. B36  0.00083 s⁻¹
12. B50  0.0008 s⁻¹
13. B18  0.00076 s⁻¹
14. B12  0.00074 s⁻¹
15. B5  0.00072 s⁻¹
16. B47  0.00072 s⁻¹
17. B10  0.00069 s⁻¹
18. B32  0.00068 s⁻¹
19. B39  0.00068 s⁻¹
20. B45  0.00067 s⁻¹
21. B2  0.00066 s⁻¹
22. B34  0.00061 s⁻¹
23. B43  0.00058 s⁻¹
24. B26  0.00052 s⁻¹
25. B40  0.0005 s⁻¹
26. B46  0.00049 s⁻¹
27. B7  0.00048 s⁻¹
28. B16  0.00048 s⁻¹
29. B33  0.00048 s⁻¹
30. B8  0.00046 s⁻¹
31. B48  0.00043 s⁻¹
32. B15  0.00039 s⁻¹
33. B13  0.00037 s⁻¹
34. B22  0.00037 s⁻¹
35. B11  0.00036 s⁻¹
36. B20  0.00035 s⁻¹
37. B19  0.00034 s⁻¹
38. B9  0.00033 s⁻¹
39. B42  0.00032 s⁻¹
40. B14  0.00031 s⁻¹
41. B17  0.00031 s⁻¹
42. B28  0.0003 s⁻¹
43. B30  0.0003 s⁻¹
44. B35  0.00028 s⁻¹
45. B37  0.00027 s⁻¹
46. B23  0.00026 s⁻¹
47. B21  0.00023 s⁻¹
48. B44  0.00023 s⁻¹
49. B4  0.00021 s⁻¹
50. B25  0.00012 s⁻¹
